Paper PMC9784774

Key:
Experiment in all cases: SPR; Biacore X100, CM5 chip, RT, 1:1 binding model; methods: antibody (4 μg/mL) captured by anti-human Fc IgG to about 100 RU, pentamer or trimer in five 2-fold dilutions injected at 30 μL/min, 90 s association, 600 s dissociation (the legend of Fig. 5 tells the reverse orientation)
[1] = target: pentamer mutant UL131A_E23A (human cytomegalovirus | human cytomegalovirus strain VR1814)
[2] = target: pentamer mutant UL128_K47A (human cytomegalovirus | human cytomegalovirus strain VR1814)
[3] = target: pentamer mutant UL128_T94A (human cytomegalovirus | human cytomegalovirus strain VR1814)
[4] = target: pentamer mutant UL131A_K27A (human cytomegalovirus | human cytomegalovirus strain VR1814)

B1: MAb 9I6 (antibody, V domains shown)
VH: EVQLVQSGAEVKKPGESLKISCRESGDTFPAYWIAWVRQMPGKGLEWMGIIYPIDSETTYSPSFQGQVTISADKSINTAYLQWSSLKASDSAIYYCARGTSTGLREAFHIWGQGTMVTVSS
VL: DVVMTQSPLSLAVTLGQPAYISCRSSQSLGYSDGNTYLNWFQQRPGQSPRRLIYEVSNRDSGVPDRFSGSGSGTDFTLKISRVEAEDVGTYYCMQGTHWPPMCSFGQGTKLEIK
Question: For B1, which Kd [1] is on record?
Answer: Its Kd is 2.83 nM.

Question: And the koff [1]?
Answer: Its koff is 0.000115 s⁻¹.

Question: What about the kon [1] of the same binder?
Answer: The kon was 40700 M⁻¹ s⁻¹.

Question: What about the Kd [2] of the same binder?
Answer: Its Kd is 1.5 nM.

Question: What about the koff [2] of the same binder?
Answer: The koff was 7.38e-05 s⁻¹.

Question: What about the kon [2] of the same binder?
Answer: The kon was 49200 M⁻¹ s⁻¹.

Question: What about the Kd [3] of the same binder?
Answer: The Kd was 0.57 nM.

Question: What about the koff [3] of the same binder?
Answer: The koff was 3e-05 s⁻¹.

Question: What about the kon [3] of the same binder?
Answer: Its kon is 53100 M⁻¹ s⁻¹.

Question: And the Kd [4]?
Answer: The Kd was 1.91 nM.

Question: What about the koff [4] of the same binder?
Answer: The koff was 0.000181 s⁻¹.

Question: And the kon [4]?
Answer: The kon was 94700 M⁻¹ s⁻¹.
